# According to patent US20210283252A1 (POLPHARMA BIOLOGICS S A, published 2021):
# B1: Natalizumab reference product (Referent batches) (antibody, human IgG4, kappa, V domains shown)
# VH: QVQLVQSGAEVKKPGASVKVSCKASGFNIKDTYIHWVRQAPGQRLEWMGRIDPANGYTKYDPKFQGRVTITADTSASTAYMELSSLRSEDTAVYYCAREGYYGNYGVYAMDYWGQGTLVTVSS
# VL: DIQMTQSPSSLSASVGDRVTITCKTSQDINKYMAWYQQTPGKAPRLLIHYTSALQPGIPSRFSGSGSGRDYTFTISSLQPEDIATYYCLQYDNLWTFGQGTKVEIKR
# Tests used:
# [1] = target: T1, α4β7 integrin (UniProt P13612 34-970; P26010 20-723, limits assumed); assay: MadCAM-1 competitive ELISA; coated α4β7 integrin, Fc-tagged MadCAM-1 as competitor; lowest of 24 batches
# Description: (§1) In still another alternative one can measure MadCAM-1 competitive binding by ELISA. The aim of this assay is to test the ability of natalizumab to inhibit interaction of α₄β₇ integrin with its cognate receptor—MadCAM-1 protein in a dose-dependent manner. Constant amount of the coated α₄β₇ integrin is incubated with serial dilutions of natalizumab in the presence of Fc-tagged MadCAM-1 receptor. Natalizumab and MadCAM-1 receptor now compete for binding to solid-phase associated α₄β₇ integrin. The higher the natalizumab concentration the more MadCAM-1 is inhibited from binding to α₄β₇ integrin. The lowest signal result is observed when no natalizumab is present. […] is subsequently detected with a POD-conjugated anti-human IgG antibody and a TMB-substrate reaction at the end of the assay. Data are analyzed with 4PL fitting model. Final result is expressed as a Relative Potency (REP) of tested sample in relation to reference standard. The method variability was determined at the level of 8% coefficient variation (CV) of intermediate precision within the qualification exercise. Additionally accuracy, linearity and specificity were tested.
# [2] = target: T1, α4β7 integrin; assay: MadCAM-1 competitive ELISA; coated α4β7 integrin, Fc-tagged MadCAM-1 as competitor; highest of 24 batches
# Description: as §1
# [3] = target: T2, HIS-tagged α4β1 integrin (UniProt P13612 34-977; P05556 21-728, limits assumed); assay: VCAM-1 competitive ELISA; coated VCAM-1 as competitor, HIS-tagged α4β1 integrin in solution; 26 batches, n=3
# T2 construct: Soluble, HIS-tagged
# Description: (§2) Alternatively, one can also measure VCAM-1 competitive binding by ELISA. The aim of this assay is to test the ability of natalizumab to inhibit interaction of α₄β₁ integrin with its cognate receptor VCAM-1 protein in a dose-dependent manner. Constant amount of the coated VCAM-1 protein is incubated with serial dilutions of natalizumab in the presence of HIS-tagged α₄β₁ integrin. Solid-phase associated VCAM-1 and soluble natalizumab now compete for binding to α₄β₁, integrin. The higher the natalizumab concentration the more α4β1 integrin is inhibited from binding to VCAM-1. The highest signal result is observed when no natalizumab is present. Bound HIS-tagged α₄β₁ integrin is subsequently detected with a biotinylated anti-HIS-tag antibody, POD-conjugated Streptavidin and a TMB-substrate reaction at the end of the assay. Data are analyzed with 4PL fitting model. Final result is expressed as a Relative Potency (REP) of tested sample in relation to reference standard. The method variability was determined at the level of 7% coefficient variation (CV) of intermediate precision within the qualification exercise. Additionally accuracy, linearity and specificity were tested.
# [4] = target: T2, HIS-tagged α4β1 integrin; assay: VCAM-1 competitive ELISA; coated VCAM-1 as competitor, HIS-tagged α4β1 integrin in solution; lowest of 26 batches
# Description: as §2
# [5] = target: T2, HIS-tagged α4β1 integrin; assay: VCAM-1 competitive ELISA; coated VCAM-1 as competitor, HIS-tagged α4β1 integrin in solution; highest of 26 batches
# Description: as §2
# [6] = target: T1, α4β7 integrin; assay: MadCAM-1 competitive ELISA; coated α4β7 integrin, Fc-tagged MadCAM-1 as competitor, bound natalizumab detected; 24 batches, n=3
# Description: as §1
binder,measurement,setting,value
B1,"Relative Potency (REP), min",[1],0.83 REP (relative to reference standard)
same,"Relative Potency (REP), max",[2],1.17 REP (relative to reference standard)
same,"Relative Potency (REP), average",[3],1.04 REP (relative to reference standard)
same,"Relative Potency (REP), min",[4],0.916 REP (relative to reference standard)
same,"Relative Potency (REP), max",[5],1.2 REP (relative to reference standard)
same,"Relative Potency (REP), average",[6],0.995 REP (relative to reference standard)
